Laboratory results published in patent publication US7976843B2, “Method for screening peptides for use in immunotherapy” (Institut National de la Santa et de la Recherche Medicale …, priority 2000, dated 2011).

Molecular target: HLA A2.1 molecule (Homo sapiens, UniProt P04439, D140Y/D185E/D98H/E176V/E277Q/G131W/G231S/I119V/I121R/I166T/I218V/L300P/L318F/N151K/N90K/P208A/P217A/Q86G/Q94H/R138H/R169H/T345S)
Experiment: Stability of the peptide/HLA A2.1 complex (DC50) on T2 cells, flow cytometry
Format: binding
Settings: […]; arrow in neighbouring cell gives direction
Description: For each incubation time, the cells are then labeled, as indicated above, with the BB7.2 antibody, and analyzed by flow cytometry in order to evaluate the amount of peptide/HLA A2.1 complex present at their surface. […] The DC50 (dissociation complex: DC) is defined as being the time required for the loss of 50% of the HLA A2.1/peptide complexes stabilized at t=0.

Sequence: GILGPVFTL [Flu M58, reference compound]
- DC50 Y1-DC50 WT: =0 hours
